Experimental data taken from publication PMC1257591, “In Vitro Inhibition of Human Hepatic and cDNA-Expressed Sulfotransferase Activity with 3-Hydroxybenzo[a]pyrene by Polychlorobiphenylols” (Environmental Health Perspectives, 2005).

Test system: T1, Oc1ccc2ccc3c4ccccc4cc4ccc1c2c43
T1 construct: made in house; host or cells: Escherichia coli
Test: Kinetics of 3-OH-BaP sulfonation by partially purified cDNA-expressed SULT1B1
Type: biochemical, human
Conditions: other: apparent, 3-OH-BaP as substrate
Description: The expression of human SULT1A1*1, SULT1A3, SULT1B1, and SULT1E1 in Escherichia coli has been described previously ([Dajani et al. 1998]; [Wang et al. 1998]). We grew E. coli cells containing the respective sulfotransferase genes as described previously ([Falany et al. 1990], [1994]), and prepared 100,000g supernatant fractions for use in inhibition studies and for partial purification of the SULT enzymes. We purchased expressed SULT1A1*2 cytosolic extract from PanVera (Madison, WI) and used it as supplied.
The 100,000g supernatant fractions of SULT1A1*1, SULT1A3, SULT1B1, and SULT1E1 were partially purified by chromatographic methods ([Falany et al. 1990], [1994]). After the last step, a 3′-phosphoadenosine 5′-phosphate (PAP)-agarose affinity column, we dialyzed the fractions eluted with PAP with three changes of buffer to remove PAP before the assay of SULT activity with 3-OH-BaP as substrate. We analyzed active fractions by SDS-PAGE ([Laemmli 1970]) to assess the purity of each SULT enzyme. We stained the gels with Coomassie R-250 reagent and determined the percentage of protein present as each respective SULT enzyme by scanning densitometry.
We determined SULT activity with 3-OH-BaP as substrate by a fluorimetric assay of BaP-3-SO4 product formation, as described previously ([Wang et al. 2004]). […] Duplicate tubes were prepared for each incubation condition. We examined the kinetics of sulfonation in three liver cytosol fractions by systematically varying the concentration of 3-OH-BaP or PAPS. When the variable substrate was 3-OH-BaP, we used 12 concentrations in the range from 0.035 to 2.00 μM, and the concentration of PAPS was kept constant at 10 μM. […]
We determined the kinetic parameters for 3-OH-BaP sulfonation by partially purified preparations of the cDNA-expressed SULT isozymes under incubation conditions similar to those used for liver cytosol. […]
We calculated the enzyme kinetic parameters from studies with variable concentrations of 3-OH-BaP using nonlinear regression analysis and GraphPad 4.0 software (GraphPad Software, San Diego, CA). […]

SULT1B1 (Homo sapiens) was tested, and the Km was 2.00 µM, the Vmax was 0.0097 µmol/min/mg and the Vmax/Km was 4900 µL/min/mg.
